Data set [1] concerns the target T1, HLTF (Homo sapiens, UniProt Q14527 25-1009).
T1 sequence: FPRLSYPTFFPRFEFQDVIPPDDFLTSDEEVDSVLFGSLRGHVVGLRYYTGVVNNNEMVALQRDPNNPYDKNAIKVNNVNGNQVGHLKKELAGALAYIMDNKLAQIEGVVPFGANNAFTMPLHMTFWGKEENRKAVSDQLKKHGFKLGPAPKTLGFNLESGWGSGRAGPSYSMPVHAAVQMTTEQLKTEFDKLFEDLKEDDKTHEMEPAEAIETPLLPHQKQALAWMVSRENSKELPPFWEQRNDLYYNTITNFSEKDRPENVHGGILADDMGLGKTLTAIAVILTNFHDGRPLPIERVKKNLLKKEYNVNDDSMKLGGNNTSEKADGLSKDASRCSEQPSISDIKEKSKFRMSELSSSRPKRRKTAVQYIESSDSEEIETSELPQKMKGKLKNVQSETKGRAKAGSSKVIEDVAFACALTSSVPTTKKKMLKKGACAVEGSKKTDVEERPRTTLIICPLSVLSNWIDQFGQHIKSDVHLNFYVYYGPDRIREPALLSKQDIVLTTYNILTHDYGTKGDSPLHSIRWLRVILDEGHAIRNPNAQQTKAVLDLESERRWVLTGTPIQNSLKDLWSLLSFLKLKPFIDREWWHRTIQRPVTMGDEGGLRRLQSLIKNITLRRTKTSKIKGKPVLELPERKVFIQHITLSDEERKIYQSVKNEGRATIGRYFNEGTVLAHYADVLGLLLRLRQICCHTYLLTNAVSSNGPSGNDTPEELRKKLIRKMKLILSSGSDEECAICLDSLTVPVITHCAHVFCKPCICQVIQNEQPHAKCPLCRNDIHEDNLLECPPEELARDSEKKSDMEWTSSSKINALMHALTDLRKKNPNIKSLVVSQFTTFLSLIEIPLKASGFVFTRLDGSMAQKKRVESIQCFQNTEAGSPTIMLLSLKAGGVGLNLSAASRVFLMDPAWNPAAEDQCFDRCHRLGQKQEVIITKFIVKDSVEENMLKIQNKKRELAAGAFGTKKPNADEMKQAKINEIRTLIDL
The data set can be described thus: pull-down; lower salt; FP: 20 mM Tris pH 7.5, 50 mM (dsDNA, KlHIRAN) or 70 mM (ssDNA) NaCl, 2 mM MgCl2, 1 nM DNA, room temp; EMSA: 20 mM Tris pH 7.5, 100 mM KCl, 0.5 mM DTT, 3% glycerol, 2 mM MgCl2, 250 ug/mL BSA, 4 C; pull-down: 20 mM Tris pH 7.5, 50 mM NaCl, 4 C. Particulars: protein: recombinant; tags: His (pET28a); label: 3'-biotin.

For data set [2], the target named is T2, ScRad5 (Saccharomyces cerevisiae, UniProt P32849 1-1169).
T2 sequence: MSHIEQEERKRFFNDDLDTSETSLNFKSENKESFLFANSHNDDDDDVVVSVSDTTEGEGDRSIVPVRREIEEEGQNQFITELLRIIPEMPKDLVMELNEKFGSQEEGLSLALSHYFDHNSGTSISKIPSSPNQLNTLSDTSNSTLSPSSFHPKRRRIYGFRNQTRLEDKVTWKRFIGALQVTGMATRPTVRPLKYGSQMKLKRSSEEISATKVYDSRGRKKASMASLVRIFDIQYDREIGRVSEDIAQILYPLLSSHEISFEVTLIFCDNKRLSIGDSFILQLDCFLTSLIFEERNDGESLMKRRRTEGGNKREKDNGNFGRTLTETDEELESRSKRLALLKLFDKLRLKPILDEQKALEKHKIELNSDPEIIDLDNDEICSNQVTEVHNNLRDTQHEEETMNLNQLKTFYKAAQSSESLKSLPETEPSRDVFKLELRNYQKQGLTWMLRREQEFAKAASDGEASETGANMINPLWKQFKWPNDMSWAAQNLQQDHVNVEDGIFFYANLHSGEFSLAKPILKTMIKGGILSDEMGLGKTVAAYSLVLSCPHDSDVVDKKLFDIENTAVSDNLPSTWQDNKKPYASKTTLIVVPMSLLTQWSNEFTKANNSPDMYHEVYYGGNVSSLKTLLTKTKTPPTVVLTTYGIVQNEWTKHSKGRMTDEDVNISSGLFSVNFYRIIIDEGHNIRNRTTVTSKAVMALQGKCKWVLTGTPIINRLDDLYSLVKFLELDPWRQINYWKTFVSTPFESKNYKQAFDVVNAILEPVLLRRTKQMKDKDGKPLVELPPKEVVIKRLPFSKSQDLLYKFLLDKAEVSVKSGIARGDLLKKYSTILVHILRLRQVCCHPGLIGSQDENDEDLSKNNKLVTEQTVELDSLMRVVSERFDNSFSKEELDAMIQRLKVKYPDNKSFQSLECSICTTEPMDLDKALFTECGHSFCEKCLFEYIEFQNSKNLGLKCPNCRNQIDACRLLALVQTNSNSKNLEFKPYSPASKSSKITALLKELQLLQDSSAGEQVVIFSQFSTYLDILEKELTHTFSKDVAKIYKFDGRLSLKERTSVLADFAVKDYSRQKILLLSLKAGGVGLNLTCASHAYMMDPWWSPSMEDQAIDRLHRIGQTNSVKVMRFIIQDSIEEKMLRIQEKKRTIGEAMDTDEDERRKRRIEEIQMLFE
The data set can be described thus: pull-down; similar to 5'-biotin; FP: 20 mM Tris pH 7.5, 50 mM (dsDNA, KlHIRAN) or 70 mM (ssDNA) NaCl, 2 mM MgCl2, 1 nM DNA, room temp; EMSA: 20 mM Tris pH 7.5, 100 mM KCl, 0.5 mM DTT, 3% glycerol, 2 mM MgCl2, 250 ug/mL BSA, 4 C; pull-down: 20 mM Tris pH 7.5, 50 mM NaCl, 4 C. Particulars: protein: recombinant; tags: N-terminal FLAG; label: 3'-biotin.

Data set [3] addresses T3, KlRad5 (Kluyveromyces lactis, UniProt Q6CJM4 163-1114).
T3 sequence: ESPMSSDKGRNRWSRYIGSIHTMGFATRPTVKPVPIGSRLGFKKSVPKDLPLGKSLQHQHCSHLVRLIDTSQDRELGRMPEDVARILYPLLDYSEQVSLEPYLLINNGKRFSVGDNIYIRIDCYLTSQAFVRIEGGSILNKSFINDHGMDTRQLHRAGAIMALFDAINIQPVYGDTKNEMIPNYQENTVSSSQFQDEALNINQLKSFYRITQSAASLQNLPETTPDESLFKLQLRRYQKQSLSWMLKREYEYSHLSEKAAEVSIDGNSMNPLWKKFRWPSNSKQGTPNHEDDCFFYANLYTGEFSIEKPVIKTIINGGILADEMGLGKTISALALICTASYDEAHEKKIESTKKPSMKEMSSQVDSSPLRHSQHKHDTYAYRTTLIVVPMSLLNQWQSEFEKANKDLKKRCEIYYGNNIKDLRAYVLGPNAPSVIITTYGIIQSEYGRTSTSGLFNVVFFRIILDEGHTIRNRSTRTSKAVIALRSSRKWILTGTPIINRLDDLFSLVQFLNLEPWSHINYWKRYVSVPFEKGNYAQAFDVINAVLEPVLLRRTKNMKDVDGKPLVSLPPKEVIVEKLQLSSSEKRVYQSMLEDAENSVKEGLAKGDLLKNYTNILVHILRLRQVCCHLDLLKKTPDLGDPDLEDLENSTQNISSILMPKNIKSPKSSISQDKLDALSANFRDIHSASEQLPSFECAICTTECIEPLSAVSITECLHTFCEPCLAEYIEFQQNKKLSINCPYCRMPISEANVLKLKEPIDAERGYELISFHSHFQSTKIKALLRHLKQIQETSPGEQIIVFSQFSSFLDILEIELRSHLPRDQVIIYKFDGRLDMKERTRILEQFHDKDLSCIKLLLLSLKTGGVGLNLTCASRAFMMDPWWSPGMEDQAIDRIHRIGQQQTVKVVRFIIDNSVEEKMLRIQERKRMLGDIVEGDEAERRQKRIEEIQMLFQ
As to the kind of experiment: pull-down; similar to 5'-biotin at all salt concentrations; FP: 20 mM Tris pH 7.5, 50 mM (dsDNA, KlHIRAN) or 70 mM (ssDNA) NaCl, 2 mM MgCl2, 1 nM DNA, room temp; EMSA: 20 mM Tris pH 7.5, 100 mM KCl, 0.5 mM DTT, 3% glycerol, 2 mM MgCl2, 250 ug/mL BSA, 4 C; pull-down: 20 mM Tris pH 7.5, 50 mM NaCl, 4 C. Particulars: protein: recombinant; tags: none; label: 3'-biotin. (In general: A gel shift assay detects complexes by their altered migration in electrophoresis.)

Another data set deals with T4, ScHIRAN (Saccharomyces cerevisiae, UniProt P32849 171-375).
T4 sequence: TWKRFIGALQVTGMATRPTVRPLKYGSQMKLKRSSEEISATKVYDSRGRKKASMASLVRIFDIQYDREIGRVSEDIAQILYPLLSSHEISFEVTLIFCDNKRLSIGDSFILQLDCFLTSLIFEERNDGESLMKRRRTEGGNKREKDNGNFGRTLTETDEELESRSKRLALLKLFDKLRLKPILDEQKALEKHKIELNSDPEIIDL
As to the kind of experiment: EMSA; no preference for free 3'-OH; FP: 20 mM Tris pH 7.5, 50 mM (dsDNA, KlHIRAN) or 70 mM (ssDNA) NaCl, 2 mM MgCl2, 1 nM DNA, room temp; EMSA: 20 mM Tris pH 7.5, 100 mM KCl, 0.5 mM DTT, 3% glycerol, 2 mM MgCl2, 250 ug/mL BSA, 4 C; pull-down: 20 mM Tris pH 7.5, 50 mM NaCl, 4 C. Particulars: protein: recombinant; tags: intein-CBD cleaved off; label: 3'-FAM.

The target of another data set is T5, KlHIRAN (Kluyveromyces lactis, UniProt Q6CJM4 174-341).
T5 sequence: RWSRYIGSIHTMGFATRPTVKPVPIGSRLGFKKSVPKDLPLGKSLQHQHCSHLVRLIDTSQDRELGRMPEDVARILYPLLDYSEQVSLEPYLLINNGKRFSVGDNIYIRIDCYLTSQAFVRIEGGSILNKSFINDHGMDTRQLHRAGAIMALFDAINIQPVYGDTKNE
The description is as above. Particulars: protein: recombinant; tags: intein-CBD cleaved off; label: 3'-FAM.

For data set [4], the target named is T1, HLTF. The data set can be described thus: pull-down; 100 mM salt; FP: 20 mM Tris pH 7.5, 50 mM (dsDNA, KlHIRAN) or 70 mM (ssDNA) NaCl, 2 mM MgCl2, 1 nM DNA, room temp; EMSA: 20 mM Tris pH 7.5, 100 mM KCl, 0.5 mM DTT, 3% glycerol, 2 mM MgCl2, 250 ug/mL BSA, 4 C; pull-down: 20 mM Tris pH 7.5, 50 mM NaCl, 4 C. Particulars: protein: recombinant; tags: His (pET28a); label: 5'-biotin.

Data set [5] addresses T2, ScRad5. The data set can be described thus: pull-down; FP: 20 mM Tris pH 7.5, 50 mM (dsDNA, KlHIRAN) or 70 mM (ssDNA) NaCl, 2 mM MgCl2, 1 nM DNA, room temp; EMSA: 20 mM Tris pH 7.5, 100 mM KCl, 0.5 mM DTT, 3% glycerol, 2 mM MgCl2, 250 ug/mL BSA, 4 C; pull-down: 20 mM Tris pH 7.5, 50 mM NaCl, 4 C. Particulars: protein: recombinant; tags: N-terminal FLAG; label: 5'-biotin.
Data set [6] addresses T3, KlRad5. The data set can be described thus: pull-down; suppressed by SSB; all salt concentrations tested; FP: 20 mM Tris pH 7.5, 50 mM (dsDNA, KlHIRAN) or 70 mM (ssDNA) NaCl, 2 mM MgCl2, 1 nM DNA, room temp; EMSA: 20 mM Tris pH 7.5, 100 mM KCl, 0.5 mM DTT, 3% glycerol, 2 mM MgCl2, 250 ug/mL BSA, 4 C; pull-down: 20 mM Tris pH 7.5, 50 mM NaCl, 4 C. Particulars: protein: recombinant; tags: none; label: 5'-biotin.

As for TTTTTTTTTTTTTTTTTTTTTTTTT (ssDNA) [dT25, 3'-biotin], the binding result with HLTF [1], with ScRad5 [2] and in the data set with KlRad5 [3] was “binds” each time.
Consider TTTTTTTTTT (ssDNA) [dT10, 3'-FAM], for which the binding result with ScHIRAN and in the data set with KlHIRAN was “binds” throughout.
Take TTTTTTTTTTTTTTTTTTTTTTTTT (ssDNA) [dT25, 5'-biotin]: the binding result with HLTF [4], in the data set with ScRad5 [5] and in the data set with KlRad5 [6] was “binds” throughout.

For the origin of these results see PMC7804152, “Structural basis for the multi-activity factor Rad5 in replication stress tolerance”.
